Source: patent publication US20220306744A1 (CRESCENDO BIOLOGICS, published 2022)

Target: T1, human PD-1 expressed on cells (CHO TREX human PD1 cell line, full-length human PD-1 sequence) (human, UniProt Q15116 21-288)
T1 construct: Also used for human PD-1 on Jurkat reporter cells, on PathHunter cells and on PHA-stimulated human CD4+ T cells; also called CHO human PD1 cells; CHO human PD-1 cells
Assay: worded summary of the screens

T1 sequence (Q15116 21-288): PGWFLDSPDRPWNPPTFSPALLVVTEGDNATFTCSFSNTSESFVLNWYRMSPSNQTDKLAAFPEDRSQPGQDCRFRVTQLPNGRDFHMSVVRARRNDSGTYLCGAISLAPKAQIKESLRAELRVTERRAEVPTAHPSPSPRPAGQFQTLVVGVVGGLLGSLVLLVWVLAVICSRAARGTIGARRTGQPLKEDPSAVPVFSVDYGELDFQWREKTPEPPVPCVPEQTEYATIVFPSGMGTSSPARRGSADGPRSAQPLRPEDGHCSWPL

Binder | binding result
1.2b (VHH) VHH: EVQLLESGGGLVKPGGSLRLSCAASGFTFSDYTMTWMRQAPGKGLEWVSYISTGGSIKYYTDSVKGRFTISRDNAKNSLYLQMNSLRADDTAVYYCAREAPLRLGESPHDAFDIWGQGTMVTVSS | binds
1.20b (VHH) VHH: EVQLLESGGGLVKPGGSLRLSCAASGFTFSDYTMTWMRQAPGKGLEWVSYISSGGSIKFYADSVKGRFTISRDNAKNSLYLQMNSLRAEDTAVYYCAREAPLRLGESPHDAFDIWGQGTMVTVSS | binds
1.27b (VHH) VHH: QVTLKESGGGLVKPGGSLRLSCAASGFTFSDYTMTWMRQAPGKGLEWVSYISTGGSIKYYTDSVKGRFTISRDNAKNSLYLQMNSLRADDTAVYYCAREAPLRLGESPHDAFDIWGQGTMVTVSS | binds
1.6b (VHH) VHH: EVQLLESGGGLVKPGGSLRLSCAASGFTFSDYTMTWMRQAPGKGLEWVSYISTGGTIKYYTDSVKGRFTISRDNAKNSLYLQMSSLRADDTAVYYCAREAPLRLGESPHDAFDIWGQGTMVTVSS | binds
1.9b (VHH) VHH: QVQLVESGGGLVKPGGSLRLSCAASGFTFGDYTMTWMRQAPGKGLEWVSYISTGGTIKYYTDSVKGRFTISRDNAKNSLYLQMDSLRADDTAVYYCAREAPLRLGESPHDAFDIWGQGTMVTVSS | binds
1.42b (VHH) VHH: QVQLVESGGGLVKPGGSLRLSCAASGFTFSDNSMTWMRQAPGKGLEWVSYISSGGGVKFYADSVKGRFTISRDNAKNSLYLQMNSLRADDTAVYYCAREAPLRLGESPHDAFDIWGQGTMVTVSS | binds
1.36b (VHH) VHH: EVQLVESGGGLVKPGGSLRLSCAASGFTFSDYTMTWMRQAPGKGLEWVSYISTGGTIKYYTDSVKGRFTISRDNAKNSLFLQMNSLRADDTAVYYCAREAPLRLGESPHDAFDIWGQGTMVTVSS | binds
1.34b (VHH) VHH: EVQLVESGGGLVKPGGSLRLSCAASGFTFSDYTMTWMRQAPGKGLEWVSYISTGGSVKYYTDSVKGRFTISRDNAKNSLYLQMNSLRADDTAVYYCAREAPLRLGESPHDAFDIWGQGTMVTVSS | binds
1.4b (VHH) VHH: QVQLVESGGGLVKPGGSLRLSCAASGFTFSDYYMIWMRQAPGKGLEWVSYISGGGTTKYYTDSVKGRFTISRDNAKNSLYLQMNSLRADDTAVYYCAREAPLRLGETPHDAFDIWGQGTMVTVSS | binds
1.45b (VHH) VHH: QVQLVESGGGLVKPGGSLRLSCAASGFTFSDYSMSWMRQAPGKGLEWVSYISSGGGVIFYADSVKGRFTISRDNAKNSLYLQMNSLRADDTAVYYCAREAPLRLGESPHDAFDIWGQGTMVTVSS | binds
1.31b (VHH) VHH: QVTLKESGGGLVKPGGSLRLSCAASGFTFSDYTMTWMRQAPGKGLEWVSYISTGGSTKYYTDSVKGRFTISRDNAKNSLYLQMNSLRADDTAVYYCAREAPLRLGESPHDAFDIWGQGTMVTVSS | binds
1.5b (VHH) VHH: EVQLVESGGGLVKPGGSLRLSCAASGFTFSDYTMTWMRQAPGKGLEWVSYISTGGNTKYYTDSVKGRFTISRDNAKNSLYLQMNSLRADDTAVYYCAREAPLRLGESPHDAFDIWGQGTMVTVSS | binds
1.11b (VHH) VHH: EVQLLESGGGLVKPGGSLRLSCAASGFTFSDYDMTWIRQAPGKGQEWVSYISRGGSTKYYADSVKGRFTISRDNAKNSLYLQMNSLRAEDTAVYYCAREAPLRLGETPHDAFDIWGQGTMVTVSS | binds
1.39b (VHH) VHH: QVQLQESGGGLVKPGGSLRLSCAASGFTFSDYTMTWMRQAPGKGLEWVSYISTGGSIKYYTDSVKGRFTISRDNAKNSLYLQMNSLRADDTAVYYCAREAPLRLGESPHDAFDIWGQGTMVTVSS | binds
1.32b (VHH) VHH: QVTLKESGGGLVKPGGSLRLSCAASGFTFSDDYMMWIRQAPGKGLEWVSYISSGGSIIYYADSVKGRFTISRDNAKNSLYLQMNSLRAEDTAVYYCAREAPLRLGESPHDAFDIRGQGTMVTVSS | binds
1.35b (VHH) VHH: EVQLLESGGGLVKPGGSLRLSCAASGFTFSDYTMTWMRQAPGKGLEWVSYISTGGSIKYYTDSVKGRFTISRDNAKNSLYLQMNSLRVDDTAVYYCAREAPLRLGESPHDAFDIWGQGTMVTVSS | binds

Continued, values first:

binding result | Binder
binds | 1.30b (VHH) VHH: QVTLKESGGGLVKPGGSLRLSCAASGFTFSDYTMTWMRQAPGKGLEWVSYISTGGSIKYYTDSVKGRFTISRDNARNSLYLQMNSLRAEDTAVYYCAREAPLRLGESPHDAFDIWGQGTMVTVSS
binds | 1.21b (VHH) VHH: EVQLVESGGGLVKPGGSLRLSCAASGFTFSDYTMTWMRQAPGKGLEWVSYISTGGSIKYYTDSVKGRFTISRDNAKNSLYLQMNSLRADDTAVYYCAREAPLRLGESPHDAFDTWGQGTMVTVSS
binds | 1.43b (VHH) VHH: QVQLVESGGGLVKPGGSLRLSCAASGFTFSDSSMTWMRQAPGKGLEWVSYISSGGGVIFYADSVKGRFTISRDNAKNSLYLQMNSLRADDTAVYYCAREAPLRLGESPHDAFDIWGQGTMVTVSS
binds | 1.47b (VHH) VHH: QVQLVESGGGLVKPGGSLRLSCAASGFTFSDNSMSWMRQAPGKGLEWVSYISSGGGVIFYADSVKGRFTISRDNAKNSLYLQMNSLRADDTAVYYCAREAPLRLGESPHDAFDIWGQGTMVTVSS
binds | 1.29b (VHH) VHH: QVTLKESGGGLVKPGGSLRLSCAASGFTFSDYTMSWMRQAPGKGLEWVSYISTGGTIKYYTDSVKGRFTISRDNAKNSLYLQMNSLRADDTAVYYCAREAPLRLGESPHDAFDIWGQGTMVTVSS
binds | 1.17b (VHH) VHH: EVQLVESGGGLVKPGGSLRLSCAASGFTFSDYTMTWMRQAPGKGLEWVSYISTGGSIKYYTDSVKGRFTISRDNAKNSLYLQMNSLRVDDTAVYYCAREAPLRLGESPHDAFDIWGQGTMVTVSS
binds | 1.46b (VHH) VHH: QVQLVESGGGLVKPGGSLRLSCAASGFTFSDSSMSWMRQAPGKGLEWVSYISSGGGVIFYADSVKGRFTISRDNAKNSLYLQMNSLRADDTAVYYCAREAPLRLGESPHDAFDIWGQGTMVTVSS
binds | 1.8b (VHH) VHH: EVQLVESGGGLVKPGGSLRLSCAASGFTFSDYTMTWMRQAPGKGLEWVSYISTGGSIKYYTDSVKGRFTISRDNAKNSLYLQMNSLRAGDTAVYYCAREAPLRLGESPHDAFDIWGQGTMVTVSS
binds | 1.44b (VHH) VHH: QVQLVESGGGLVKPGGSLRLSCAASGFTFSDNSMTWMRQAPGKGLEWVSYISSGGAVKFYADSVKGRFTISRDNAKNSLYLQMNSLRADDTAVYYCAREAPLRLGESPHDAFDIWGQGTMVTVSS
binds | 1.3b (VHH) VHH: QVQLVESGGGLVKPGGSLRLSCAASGFTFSDYTMTWMRQAPGKGLEWVSYISTGGSIKYYTDSVKGRFTISRDNAKNSLYLQMNSLRADDTAVYYCAREAPLRLGESPHDAFDIWGQGTMVTVSS
binds | 1.16b (VHH) VHH: EVQLVESGGGLVKPGGSLRLSCAASGFTFSDYTMSWMRQAPGKGLEWVSYISTGGSIKYYTDSVKGRFTISRDNAKNSLYLQMNSLRADDTAVYYCAREAPLRLGESPHDAFDIWGQGTMVTVSS
binds | 1.37b (VHH) VHH: QVQLVESGGGLVKPGGSLRLSCAASGFTFSDYTMTWMRQAPGKGLEWVSYISTGGSIKYYTDSVKGRFTISRDNAKNSLFLQMNSLRADDTAVYYCAREAPLRLGESPHDAFDIWGQGTMVTVSS
binds | 1.22b (VHH) VHH: EVQLVESGGGLVKPGGSLRLSCAASGFTFSDYTMTWMRQAPGKGLEWVSYISTGGSIKYYTDSVKGRFTISRDNAKNSLYLQMNSLRADDTAVYYCAREAPLRLGESPHDAFDIWGQGTMVTVSS
binds | 1.19b (VHH) VHH: QVQLVESGGGLVKPGGSLRLSCAASGFTFSDYTMTWMRQAPGKGLEWVSYISTGGSIKYYTDSVKGRFTISRDNAKNSLYLQMNSLRAEDTAVYYCAREAPLRLGETPHDAFDIWGQGTMVTVSS
binds | 1.23b (VHH) VHH: QITLKESGGGLVKPGGSLRLSCAASGFTFSDYTMSWMRQAPGKGLEWVSYISTGGTIKYYTDSVKGRFTISRDNAKNSLYLQMNSLRADDTAVYYCAREAPLRLGESPHDAFDIWGQGTMVTVSS
binds | 1.10b (VHH) VHH: QVQLVESGGGLVKPGGSLRLSCAASGFTFSDYTMSWMRQAPGKGLEWISYISLGGNTKYYTDSVKGRFTISRDNAKNSLYLQMNSLRADDTAVYYCAREAPLRLGESPHDAFDIWGQGTMVTVSS
